Assay [1] deals with macroH2A1 (endogenous; collective term for macroH2A1.1 and macroH2A1.2) (mouse (endogenous in C2C12 and MEF)). Description: proximity ligation; duolink PLA in situ in control C2C12 cells; high-content screening microscopy (Operetta), nuclear spots of the full cell population counted with Harmony.
The target is the same in assay [2]. Nature of the assay: proximity ligation; duolink PLA in situ in C2C12 stable knockdown lines (Scramble control, macroH2A2 knockdown); cells extracted before fixation to remove soluble Mcm2; EdU-positive cells; confocal imaging, spots per nucleus counted in FIJI.

Chain of macroH2A1 (endogenous; collective term for macroH2A1.1 and macroH2A1.2) (mouse (endogenous in C2C12 and MEF)) (Q9QZQ8 whole entry): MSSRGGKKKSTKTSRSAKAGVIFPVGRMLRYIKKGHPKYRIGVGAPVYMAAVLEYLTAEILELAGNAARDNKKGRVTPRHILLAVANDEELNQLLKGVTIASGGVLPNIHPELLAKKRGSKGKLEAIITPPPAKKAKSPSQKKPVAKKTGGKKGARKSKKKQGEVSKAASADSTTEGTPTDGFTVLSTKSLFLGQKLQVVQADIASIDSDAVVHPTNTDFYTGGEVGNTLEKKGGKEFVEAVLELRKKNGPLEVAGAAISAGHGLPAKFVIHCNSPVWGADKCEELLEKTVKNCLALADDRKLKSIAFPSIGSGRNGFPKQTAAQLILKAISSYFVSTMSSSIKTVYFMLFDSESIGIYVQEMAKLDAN

Turning to “Mcm2 (subunit of the Mcm DNA helicase complex) (from UniProt P97310 1-904) (natural protein)”, the PLA spots per nucleus (spots per nucleus) in assay [1] was 15.1. Also, in assay [2], the PLA spots per nucleus (control Scramble cells) (spots per nucleus) turned out to be 19.8 and the PLA spots per nucleus (macroH2A2 depleted cells) (spots per nucleus) stood at 18.2.
